Experimental data published in article PMC2820766 (The Journal of Biological Chemistry, 2009).

Biological target: the molecule itself
Test: SEC

Row | Protein | stoichiometry N
1 | MscSΔW L105W (W16Y/W240F/W251F/L105W), small mechanosensitive channel MscS-H6 (natural protein) MEDLNVVDSINGAGSYLVANQALLLSYAVNIVAALAIIIVGLIIARMISNAVNRLMISRKIDATVADFLSALVRYGIIAFTLIAALGRVGVQTASVIAVLGAAGWAVGLALQGSLSNLAAGVLLVMFRPFRAGEYVDLGGVAGTVLSVQIFSTTMRTADGKIIVIPNGKIIAGNIINFSREPVRRNEFIIGVAYDSDIDQVKQILTNIIQSEDRILKDREMTVRLNELGASSINFVVRVFSNSGDLQNVYFDVLERIKREFDAAGISFPYPQMDVNFKRVKEDKAA | 7
2 | MscSΔW L105W/A106V (W16Y/W240F/W251F/L105W/A106V), small mechanosensitive channel MscS-H6 (natural protein) MEDLNVVDSINGAGSYLVANQALLLSYAVNIVAALAIIIVGLIIARMISNAVNRLMISRKIDATVADFLSALVRYGIIAFTLIAALGRVGVQTASVIAVLGAAGWVVGLALQGSLSNLAAGVLLVMFRPFRAGEYVDLGGVAGTVLSVQIFSTTMRTADGKIIVIPNGKIIAGNIINFSREPVRRNEFIIGVAYDSDIDQVKQILTNIIQSEDRILKDREMTVRLNELGASSINFVVRVFSNSGDLQNVYFDVLERIKREFDAAGISFPYPQMDVNFKRVKEDKAA | 7
